Key:
Test in all cases: cell_activity
[1] = tested on: DMDE7.1 TALEN pair (left and right, FokI homodimer) (synthetic construct); conditions: fibroblasts, day 3 SURVEYOR
[2] = tested on: btGDF83.1 TALEN pair (left and right) (synthetic construct); conditions: bovine fibroblasts, SURVEYOR; active at 30 and 37 C
[3] = tested on: p65 (RELA) TALEN pair (left and right) (synthetic construct); conditions: porcine zygotes, 10 ng/ul mRNA each TALEN, 16 of 56
[4] = tested on: DMDE6 TALEN pair (left and right) (synthetic construct); conditions: pig fibroblasts, day 3, co-transfected with DMDE7.1
[5] = tested on: ACAN12 TALEN pair (left and right, FokI homodimer) (synthetic construct); conditions: fibroblasts, day 3 SURVEYOR

Substance: DMD exon 7 target locus
- activity (% chromosomes cleaved (NHEJ)) [1]: 38

Substance: GDF8 exon 3 target locus
- activity (% chromosomes cleaved (NHEJ)) [2]: < 16

Substance: p65 target locus
- activity (% embryos with indels) [3]: 29

Substance: DMD exon 6 target locus
- activity [4]: 24 % NHEJ

Substance: ACAN12 target locus
- activity (% chromosomes cleaved (NHEJ)) [5]: 25
